According to the supplement of paper PMC10065799, “High-throughput profiling of sequence recognition by tyrosine kinases and SH2 domains using bacterial peptide display” (eLife, 2023):

Key:
AncSZ = test: phosphorylation enrichment, bacterial display (enrichment ratio); higher = better substrate or ligand; peptides without Tyr show the background
EPHB1 = EPHB1 (UniProt P54762); test: as above
EPHB2 = EPHB2 (UniProt P29323); test: as above
FGFR1 = FGFR1 (UniProt P11362); test: as above
FGFR3 = FGFR3 (UniProt P22607); test: as above
Chain of FGFR3 (P22607 whole entry, looked up): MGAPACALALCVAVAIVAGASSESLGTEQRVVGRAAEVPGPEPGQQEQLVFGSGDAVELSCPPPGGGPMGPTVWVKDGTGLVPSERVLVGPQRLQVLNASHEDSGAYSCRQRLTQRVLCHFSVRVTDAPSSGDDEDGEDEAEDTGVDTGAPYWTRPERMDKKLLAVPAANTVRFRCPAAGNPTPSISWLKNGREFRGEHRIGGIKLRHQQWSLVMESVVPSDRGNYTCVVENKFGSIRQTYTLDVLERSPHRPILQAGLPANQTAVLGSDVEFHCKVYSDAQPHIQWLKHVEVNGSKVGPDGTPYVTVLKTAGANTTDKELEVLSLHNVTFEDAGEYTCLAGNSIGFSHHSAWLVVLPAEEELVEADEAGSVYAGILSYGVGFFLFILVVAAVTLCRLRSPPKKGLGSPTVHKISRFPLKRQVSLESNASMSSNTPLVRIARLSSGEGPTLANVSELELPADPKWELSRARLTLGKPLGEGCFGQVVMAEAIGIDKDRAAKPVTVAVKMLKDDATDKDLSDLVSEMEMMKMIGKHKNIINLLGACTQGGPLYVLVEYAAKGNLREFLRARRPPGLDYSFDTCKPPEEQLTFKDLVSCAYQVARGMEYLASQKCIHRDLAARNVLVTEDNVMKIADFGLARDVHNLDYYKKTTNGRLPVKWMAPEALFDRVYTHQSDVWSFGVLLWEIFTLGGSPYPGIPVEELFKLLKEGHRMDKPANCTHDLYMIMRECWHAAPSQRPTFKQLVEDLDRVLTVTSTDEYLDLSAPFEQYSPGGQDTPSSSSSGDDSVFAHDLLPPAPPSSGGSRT

Fer (mouse) = test: as above
Fes = Fes (UniProt P07332); test: as above
Fyn = Fyn (UniProt P06241); test: as above
Hck = Hck (UniProt P08631); test: as above
Chain of Hck (P08631 whole entry, looked up): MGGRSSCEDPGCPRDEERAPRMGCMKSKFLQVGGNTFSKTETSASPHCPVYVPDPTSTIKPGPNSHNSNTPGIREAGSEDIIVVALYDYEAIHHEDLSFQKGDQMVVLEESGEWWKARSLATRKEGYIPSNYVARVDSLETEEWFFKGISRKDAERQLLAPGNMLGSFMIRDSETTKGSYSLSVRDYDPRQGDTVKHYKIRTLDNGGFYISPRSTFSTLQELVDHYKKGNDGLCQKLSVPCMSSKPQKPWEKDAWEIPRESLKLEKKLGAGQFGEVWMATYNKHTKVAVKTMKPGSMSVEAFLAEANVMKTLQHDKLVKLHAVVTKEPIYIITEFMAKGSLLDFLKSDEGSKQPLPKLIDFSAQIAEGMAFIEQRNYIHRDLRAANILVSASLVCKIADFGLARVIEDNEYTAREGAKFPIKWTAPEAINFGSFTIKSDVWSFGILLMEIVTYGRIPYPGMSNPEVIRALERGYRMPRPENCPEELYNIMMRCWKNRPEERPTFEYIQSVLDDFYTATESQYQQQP

Jak2 = Jak2 (UniProt O60674); test: as above
Chain of Jak2 (O60674 whole entry, looked up): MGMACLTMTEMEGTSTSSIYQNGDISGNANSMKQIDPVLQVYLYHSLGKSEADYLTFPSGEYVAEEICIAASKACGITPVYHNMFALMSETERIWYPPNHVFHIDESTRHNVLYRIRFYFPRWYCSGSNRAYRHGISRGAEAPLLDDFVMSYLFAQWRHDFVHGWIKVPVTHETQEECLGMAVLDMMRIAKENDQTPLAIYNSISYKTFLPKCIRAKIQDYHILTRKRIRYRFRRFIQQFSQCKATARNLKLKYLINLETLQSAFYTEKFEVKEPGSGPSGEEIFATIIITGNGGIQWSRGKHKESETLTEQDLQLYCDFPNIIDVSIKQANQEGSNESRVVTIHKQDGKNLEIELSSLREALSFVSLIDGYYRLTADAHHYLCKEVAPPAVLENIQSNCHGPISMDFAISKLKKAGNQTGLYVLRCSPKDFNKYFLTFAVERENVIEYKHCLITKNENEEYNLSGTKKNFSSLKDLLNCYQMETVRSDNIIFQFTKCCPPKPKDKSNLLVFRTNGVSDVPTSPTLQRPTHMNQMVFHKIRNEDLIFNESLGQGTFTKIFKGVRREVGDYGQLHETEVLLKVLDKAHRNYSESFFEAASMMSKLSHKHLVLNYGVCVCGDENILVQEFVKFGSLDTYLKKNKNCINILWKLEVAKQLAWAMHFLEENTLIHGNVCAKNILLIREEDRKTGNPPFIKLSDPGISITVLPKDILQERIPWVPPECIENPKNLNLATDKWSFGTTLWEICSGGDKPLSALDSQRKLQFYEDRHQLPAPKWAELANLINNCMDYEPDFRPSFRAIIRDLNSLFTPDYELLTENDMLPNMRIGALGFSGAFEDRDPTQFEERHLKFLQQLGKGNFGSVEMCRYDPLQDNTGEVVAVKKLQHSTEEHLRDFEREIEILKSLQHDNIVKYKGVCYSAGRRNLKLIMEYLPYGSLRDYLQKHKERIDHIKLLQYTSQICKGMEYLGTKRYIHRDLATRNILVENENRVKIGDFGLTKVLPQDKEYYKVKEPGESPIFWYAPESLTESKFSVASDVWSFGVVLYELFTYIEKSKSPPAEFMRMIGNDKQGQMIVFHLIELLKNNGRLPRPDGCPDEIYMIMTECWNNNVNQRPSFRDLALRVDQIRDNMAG

MERTK = MERTK (UniProt Q12866); test: as above
c-Abl (mouse) = test: as above
c-Src = test: as above
Grb2 SH2 = Grb2 SH2 (UniProt P62993); test: SH2 binding enrichment of the phosphorylated peptide, bacterial display (enrichment ratio); higher = better substrate or ligand; peptides without Tyr show the background
Chain of Grb2 SH2 (P62993 whole entry, looked up): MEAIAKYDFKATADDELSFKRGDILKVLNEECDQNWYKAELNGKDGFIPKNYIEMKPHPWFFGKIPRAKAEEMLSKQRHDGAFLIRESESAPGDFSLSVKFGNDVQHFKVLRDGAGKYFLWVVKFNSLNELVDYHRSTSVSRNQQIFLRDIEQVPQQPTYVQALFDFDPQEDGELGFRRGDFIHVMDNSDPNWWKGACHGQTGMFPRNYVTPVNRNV

SHP2-C SH2 = test: as above
c-Src SH2 = test: as above
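For SH2 binding enrichment of the phosphorylated peptide, bacterial display in this document: peptide library displayed on the E. coli surface as eCPX fusions, selected cells deep-sequenced, score is each peptide's frequency after selection divided by its frequency in the input.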
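For phosphorylation enrichment, bacterial display in this document: 11-residue human phosphosite peptides and single-mutation variants displayed on the E. coli surface, counted by deep sequencing, each peptide's frequency after selection divided by its frequency in the unselected input library; frequency after pTyr selection over input frequency; kinase dosed for 20-30% of maximal phosphorylation in three min.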

Chain of EPHB1 (P54762 whole entry, looked up): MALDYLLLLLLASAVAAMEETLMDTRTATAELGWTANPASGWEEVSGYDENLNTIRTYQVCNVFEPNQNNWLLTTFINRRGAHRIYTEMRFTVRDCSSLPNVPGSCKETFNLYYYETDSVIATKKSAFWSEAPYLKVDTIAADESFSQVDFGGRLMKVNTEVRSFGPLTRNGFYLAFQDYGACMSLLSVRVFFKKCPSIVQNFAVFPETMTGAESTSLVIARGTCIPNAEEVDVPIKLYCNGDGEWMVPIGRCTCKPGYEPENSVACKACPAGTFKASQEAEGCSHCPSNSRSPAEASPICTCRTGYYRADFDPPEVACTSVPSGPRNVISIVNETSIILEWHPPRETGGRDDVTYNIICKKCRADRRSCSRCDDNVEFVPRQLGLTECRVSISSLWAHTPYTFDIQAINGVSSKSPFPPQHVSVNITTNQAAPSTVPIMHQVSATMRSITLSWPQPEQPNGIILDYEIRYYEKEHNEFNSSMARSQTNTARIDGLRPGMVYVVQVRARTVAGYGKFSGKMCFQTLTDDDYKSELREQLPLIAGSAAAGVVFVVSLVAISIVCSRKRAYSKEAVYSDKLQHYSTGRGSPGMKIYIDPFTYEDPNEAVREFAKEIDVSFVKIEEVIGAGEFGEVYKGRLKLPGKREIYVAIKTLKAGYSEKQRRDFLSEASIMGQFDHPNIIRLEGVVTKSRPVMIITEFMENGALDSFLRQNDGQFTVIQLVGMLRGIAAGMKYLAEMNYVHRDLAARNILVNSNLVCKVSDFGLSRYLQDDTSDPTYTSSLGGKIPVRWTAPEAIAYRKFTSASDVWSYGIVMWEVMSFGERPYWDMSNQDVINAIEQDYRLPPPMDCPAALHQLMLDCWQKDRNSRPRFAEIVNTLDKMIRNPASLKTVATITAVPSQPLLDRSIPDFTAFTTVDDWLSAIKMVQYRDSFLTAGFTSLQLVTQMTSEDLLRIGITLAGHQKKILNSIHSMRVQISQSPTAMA
Chain of EPHB2 (P29323 whole entry, looked up): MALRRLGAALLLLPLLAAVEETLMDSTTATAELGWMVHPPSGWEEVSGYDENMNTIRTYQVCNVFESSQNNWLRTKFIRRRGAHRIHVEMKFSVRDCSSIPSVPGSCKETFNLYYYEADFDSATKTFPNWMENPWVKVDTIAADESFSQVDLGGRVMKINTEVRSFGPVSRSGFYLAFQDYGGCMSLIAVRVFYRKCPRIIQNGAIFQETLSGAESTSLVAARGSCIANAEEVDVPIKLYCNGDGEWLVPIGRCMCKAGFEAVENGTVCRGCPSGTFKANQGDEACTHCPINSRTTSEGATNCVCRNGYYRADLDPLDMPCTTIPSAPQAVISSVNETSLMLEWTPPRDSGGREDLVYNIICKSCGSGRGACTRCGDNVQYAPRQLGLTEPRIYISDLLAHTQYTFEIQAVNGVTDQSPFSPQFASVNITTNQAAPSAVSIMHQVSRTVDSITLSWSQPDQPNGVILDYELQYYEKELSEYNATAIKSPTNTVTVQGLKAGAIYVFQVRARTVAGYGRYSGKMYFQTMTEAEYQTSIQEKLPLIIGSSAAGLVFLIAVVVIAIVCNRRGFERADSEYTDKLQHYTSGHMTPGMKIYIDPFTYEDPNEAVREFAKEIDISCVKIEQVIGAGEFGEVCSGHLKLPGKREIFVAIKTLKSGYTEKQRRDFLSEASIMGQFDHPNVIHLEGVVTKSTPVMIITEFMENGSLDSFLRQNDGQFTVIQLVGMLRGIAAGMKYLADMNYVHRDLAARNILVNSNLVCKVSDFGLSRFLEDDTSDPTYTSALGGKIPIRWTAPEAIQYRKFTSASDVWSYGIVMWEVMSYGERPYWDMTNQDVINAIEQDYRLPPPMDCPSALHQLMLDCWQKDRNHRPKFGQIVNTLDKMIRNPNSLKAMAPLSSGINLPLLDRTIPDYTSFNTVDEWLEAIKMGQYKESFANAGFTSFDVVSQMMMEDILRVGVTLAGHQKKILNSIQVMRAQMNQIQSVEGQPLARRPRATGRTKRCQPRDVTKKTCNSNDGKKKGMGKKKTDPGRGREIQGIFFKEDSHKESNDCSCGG

Row | Sequence | phosphorylation enrichment (AncSZ) | phosphorylation enrichment (EPHB1) | phosphorylation enrichment (EPHB2) | phosphorylation enrichment (FGFR1) | phosphorylation enrichment (FGFR3) | phosphorylation enrichment (Fer (mouse)) | phosphorylation enrichment (Fes) | phosphorylation enrichment (Fyn) | phosphorylation enrichment (Hck) | phosphorylation enrichment (Jak2) | phosphorylation enrichment (MERTK) | phosphorylation enrichment (c-Abl (mouse)) | phosphorylation enrichment (c-Src) | SH2 binding enrichment (Grb2 SH2) | SH2 binding enrichment (SHP2-C SH2) | SH2 binding enrichment (c-Src SH2)
1 | FADIAYSYRHG [PAH_Y166_N167S] | 0.726 | 0.423 | 0.418 | 0.562 | 0.508 | 0.453 | 0.658 | 0.512 | 0.568 | 0.727 | 0.46 | 0.63 | 0.714 | 0.822 | 0.784 | 0.496
2 | NNHGNYIVRLG [ETFDH_Y172] | 0.619 | 0.548 | 0.563 | 0.456 | 0.595 | 0.438 | 0.723 | 0.5 | 0.481 | 0.702 | 0.416 | 0.667 | 0.547 | 0.889 | 0.991 | 0.781
3 | GMTLSYLFREP [NDUFS8_Y74] | 0.763 | 0.501 | 0.579 | 0.606 | 0.633 | 0.367 | 0.877 | 0.397 | 0.509 | 0.848 | 0.365 | 0.652 | 0.505 | 1.23 | 1.4 | 0.915
4 | SFLFRYADDSF [RAB3C_Y50] | 1.01 | 0.545 | 0.515 | 0.475 | 0.582 | 0.414 | 1.01 | 0.45 | 0.525 | 0.835 | 0.45 | 0.582 | 0.434 | 0.988 | 1.21 | 0.589
5 | EEGESYVCSSD [DCX_Y125] | 1.31 | 0.814 | 0.792 | 0.676 | 0.945 | 0.799 | 1.41 | 0.56 | 0.694 | 1.21 | 0.58 | 0.924 | 0.603 | 1.08 | 0.839 | 0.793
6 | DQIDTYELSGA [DNM1_Y354_G359A] | 1.21 | 0.545 | 0.554 | 0.475 | 0.809 | 0.637 | 1.16 | 0.964 | 0.741 | 1.03 | 0.475 | 0.681 | 0.793 | 0.824 | 0.727 | 0.493
7 | FLNSIYKSRDE [ROS1_Y2227] | 0.566 | 0.365 | 0.517 | 0.439 | 0.507 | 0.342 | 0.642 | 0.444 | 0.519 | 0.612 | 0.357 | 0.499 | 0.481 | 1 | 0.954 | 0.612
8 | CTNPRYLAAGS [RABL3_Y185] | 0.794 | 0.496 | 0.486 | 0.507 | 0.646 | 0.629 | 0.767 | 0.426 | 0.357 | 0.915 | 0.415 | 0.787 | 0.467 | 0.767 | 0.609 | 0.444
9 | RGNMFYENSFA [EGFR_Y113_YF] | 1.21 | 0.483 | 0.663 | 0.785 | 0.744 | 2.57 | 0.836 | 0.997 | 0.479 | 1.01 | 0.727 | 0.533 | 0.922 | 18.9 | 1.26 | 3.16
10 | FAFQLYDLDPD [CHP2_Y123_R127P_YF] | 1.26 | 0.981 | 0.698 | 0.568 | 0.907 | 0.62 | 1.26 | 2.84 | 1.8 | 1.25 | 0.571 | 1.05 | 3.52 | 1.02 | 0.999 | 0.982
11 | PSARTYCYKQE [KLHDC9_Y175] | 1.14 | 0.647 | 0.721 | 0.454 | 0.907 | 0.666 | 1.29 | 0.533 | 0.506 | 0.762 | 0.736 | 0.63 | 0.439 | 0.768 | 0.815 | 0.643
12 | TRDVNYGWTIR [MT-CYB_Y75_I78T] | 1.39 | 0.544 | 0.648 | 0.46 | 0.636 | 0.588 | 0.969 | 0.441 | 0.478 | 0.834 | 0.495 | 0.534 | 0.492 | 1.29 | 1.02 | 0.515
13 | KFDLMYAKWAF [TUBA3E_Y399] | 1.18 | 0.783 | 0.784 | 0.669 | 0.866 | 5.85 | 1.26 | 1.43 | 2.16 | 1 | 3.02 | 1.68 | 1.98 | 1.24 | 0.919 | 1.18
14 | TSESSYYKSLN [NGEF_Y288_A286S] | 0.76 | 0.55 | 0.668 | 0.64 | 0.651 | 0.482 | 0.817 | 0.469 | 0.496 | 0.771 | 0.564 | 0.499 | 0.518 | 0.892 | 0.64 | 0.65
15 | QRRFVYFFSFL [PTEN_Y176_YF] | 1.6 | 0.563 | 0.61 | 0.573 | 0.908 | 1.91 | 1.46 | 0.656 | 0.57 | 1.15 | 0.618 | 1.12 | 0.567 | 1.13 | 0.821 | 0.642
16 | CNPLRYPTIMI [OR6K6_Y160] | 0.946 | 0.49 | 0.758 | 0.584 | 0.84 | 0.419 | 0.962 | 0.524 | 0.5 | 0.871 | 0.482 | 0.737 | 0.464 | 0.822 | 0.829 | 0.458
17 | GDFFRYLAEVA [YWHAG_Y133_YF] | 1.07 | 0.503 | 0.51 | 0.683 | 0.664 | 0.486 | 1.18 | 0.432 | 0.477 | 0.964 | 0.429 | 0.78 | 0.447 | 0.763 | 0.561 | 0.469

Row | Sequence | phosphorylation enrichment (AncSZ) | phosphorylation enrichment (EPHB1) | phosphorylation enrichment (EPHB2) | phosphorylation enrichment (FGFR1) | phosphorylation enrichment (FGFR3) | phosphorylation enrichment (Fer (mouse)) | phosphorylation enrichment (Fes) | phosphorylation enrichment (Fyn) | phosphorylation enrichment (Hck) | phosphorylation enrichment (Jak2) | phosphorylation enrichment (MERTK) | phosphorylation enrichment (c-Abl (mouse)) | phosphorylation enrichment (c-Src) | SH2 binding enrichment (Grb2 SH2) | SH2 binding enrichment (SHP2-C SH2) | SH2 binding enrichment (c-Src SH2)
18 | VFSIDYFRVGG [NTRK2_Y706_T704I_YF] | 1.35 | 0.874 | 0.563 | 4.54 | 2.94 | 0.484 | 1.08 | 0.535 | 0.588 | 5.86 | 0.526 | 0.829 | 0.649 | 1.2 | 2.13 | 1.08
19 | SQKRKYIEIDS [SDAD1_Y580] | 0.818 | 0.463 | 0.414 | 0.463 | 0.376 | 0.394 | 0.614 | 0.451 | 0.475 | 0.701 | 0.571 | 0.613 | 0.507 | 0.856 | 1.04 | 2.09
20 | LQLLGHRPVYS [CHST6_Y358_Y358H] | 0.615 | 0.462 | 0.47 | 0.425 | 0.506 | 0.479 | 0.701 | 0.535 | 0.512 | 0.552 | 0.374 | 0.418 | 0.381 | 1.22 | 0.935 | 0.733
21 | PRLMLYNPTTF [EGFR_Y270_P266R_YF] | 1.16 | 0.763 | 0.811 | 0.772 | 1.04 | 0.848 | 1.18 | 0.748 | 0.618 | 1.38 | 0.703 | 1.12 | 0.729 | 0.968 | 0.631 | 0.505
22 | VDYQPYRKHKY [TEX37_Y28] | 0.627 | 0.314 | 0.356 | 0.423 | 0.416 | 0.425 | 0.518 | 0.436 | 0.484 | 0.483 | 0.302 | 0.53 | 0.35 | 0.917 | 1.11 | 0.918
23 | LLILEYAKFGS [RET_Y806_V804L_YF] | 1.34 | 1.49 | 0.991 | 0.85 | 1.38 | 0.699 | 1.52 | 1.01 | 0.901 | 1.15 | 0.585 | 0.635 | 0.976 | 2.19 | 1.76 | 1.21
24 | QLQTTYPSSDN [MAX_Y115_N114T] | 0.773 | 0.445 | 0.48 | 0.433 | 0.626 | 0.789 | 0.752 | 0.35 | 0.474 | 0.853 | 0.357 | 0.566 | 0.556 | 0.921 | 0.73 | 0.448
25 | KSEKVYTRHGV [FLOT1_Y56] | 0.502 | 0.354 | 0.339 | 0.439 | 0.341 | 0.417 | 0.527 | 0.254 | 0.346 | 0.444 | 0.427 | 0.401 | 0.34 | 0.866 | 0.824 | 0.579
26 | AKRKGYDMQVD [NEB_Y2770_R2773Q] | 0.473 | 0.257 | 0.366 | 0.311 | 0.315 | 0.328 | 0.395 | 0.327 | 0.363 | 0.377 | 0.301 | 0.372 | 0.404 | 0.728 | 0.493 | 0.533
27 | THEVRYVSAGQ [SLCO4A1_Y77] | 0.733 | 0.393 | 0.368 | 0.416 | 0.45 | 0.47 | 0.773 | 0.398 | 0.374 | 0.632 | 0.368 | 0.485 | 0.366 | 0.771 | 0.927 | 0.495
28 | DMLYQYLKQIE [RPAP3_Y569] | 1.23 | 3.36 | 1.96 | 3.07 | 2.4 | 6.39 | 0.887 | 1.19 | 5.42 | 0.83 | 5.97 | 0.602 | 1.43 | 1.15 | 0.635 | 0.537
29 | LSIDRYHAIVF [NPSR1_Y147_YF] | 1.56 | 0.753 | 1.04 | 1.22 | 1.44 | 0.444 | 1.3 | 0.833 | 0.861 | 2.75 | 1.81 | 0.941 | 0.976 | 0.934 | 0.691 | 1.44
30 | NTFENYWPFFQ [GATM_Y103_K102N_YF] | 1.34 | 9.64 | 5.8 | 12.4 | 10.5 | 0.894 | 1.18 | 3.18 | 5.44 | 3.43 | 5.46 | 1.22 | 4.41 | 1.06 | 0.949 | 0.651
31 | KDQGTYEDFVE [MYL6_Y86_YF] | 1.31 | 0.569 | 0.59 | 0.906 | 1.35 | 0.911 | 2.32 | 0.616 | 0.966 | 1.94 | 1.12 | 1.97 | 1.31 | 0.509 | 0.247 | 1.46
32 | EMTAEYACTRK [ACAD9_Y325] | 0.703 | 0.406 | 0.492 | 0.397 | 0.551 | 0.497 | 0.706 | 0.434 | 0.627 | 0.499 | 0.457 | 0.603 | 0.412 | 1.22 | 1.03 | 0.692
33 | CLGNQYVNVMN [SLC3A1_Y461_R456C] | 1.11 | 0.588 | 0.608 | 0.567 | 0.955 | 0.475 | 1.05 | 0.403 | 0.448 | 1 | 0.336 | 0.689 | 0.437 | 18.2 | 1.11 | 2.27
